Experimental findings from patent publication US20100221748A1 are described below.

In the series the target is T1, RB-C fusion protein (residues 701-928) (UniProt P06400).
T1 sequence: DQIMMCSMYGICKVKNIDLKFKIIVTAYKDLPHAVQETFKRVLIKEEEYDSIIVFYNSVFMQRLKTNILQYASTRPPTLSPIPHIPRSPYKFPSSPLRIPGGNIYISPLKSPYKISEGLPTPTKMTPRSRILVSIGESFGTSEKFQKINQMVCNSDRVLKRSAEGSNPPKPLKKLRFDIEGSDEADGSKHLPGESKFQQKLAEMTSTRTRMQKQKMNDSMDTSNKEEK

AMPK holoenzyme (α/β/γ heterotrimers): the “nonradioactive in vitro kinase assay; phosphorylation monitored by immunoblot using phospho-Rb800/804 antibody” value is “AMPK directly phosphorylated Rb at Ser804 and that this modification could be inhibited by the AMPK inhibitor, compound C”.
